Article PMC11558545, “Mechanistic Insights into the Function of 14-3-3 Proteins as Negative Regulators of Brassinosteroid Signaling in Arabidopsis” (Plant and Cell Physiology, 2024)
pKd: −log10 of the molar value.

How the values were obtained:
14-3-3κ = 14-3-3κ (UniProt P48348); test: isothermal titration calorimetry
[1] = molecular target: Arabidopsis 14-3-3 isoform kappa (At14-3-3-κ^1−248) (Arabidopsis thaliana) (UniProt P48348); test: ITC; Nano ITC, 25°C, 25 mM Hepes pH 7.0, 50 mM KCl; 600 μM peptide or phosphopeptide injected into 50 μM 14-3-3 protein in the cell, 25 injections
[2] = molecular target: biotinylated 14-3-3 ω dimer (Arabidopsis thaliana) (UniProt Q01525); test: grating-coupled interferometry (GCI); Creoptix WAVE; biotinylated 14-3-3 ω dimer captured on a streptavidin-coated 4PCH chip (~500 pg/mm^2); peptide as analyte, 2-fold dilution series from 10 µM; 25°C; 20 mM Hepes, 150 mM NaCl; 1-to-1 (2:2) binding model
biotinylated 14-3-3 ω dimer (Arabidopsis thaliana), sequence (Q01525 whole entry): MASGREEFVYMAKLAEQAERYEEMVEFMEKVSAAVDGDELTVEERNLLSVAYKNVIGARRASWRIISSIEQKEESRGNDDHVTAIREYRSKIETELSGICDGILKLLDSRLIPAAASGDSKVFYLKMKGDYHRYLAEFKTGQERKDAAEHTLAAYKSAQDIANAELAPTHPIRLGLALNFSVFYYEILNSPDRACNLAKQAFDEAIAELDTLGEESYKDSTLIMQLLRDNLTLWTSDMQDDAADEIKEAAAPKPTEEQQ

Arabidopsis 14-3-3 isoform kappa (At14-3-3-κ^1−248) (Arabidopsis thaliana), sequence (P48348 whole entry, canonical isoform): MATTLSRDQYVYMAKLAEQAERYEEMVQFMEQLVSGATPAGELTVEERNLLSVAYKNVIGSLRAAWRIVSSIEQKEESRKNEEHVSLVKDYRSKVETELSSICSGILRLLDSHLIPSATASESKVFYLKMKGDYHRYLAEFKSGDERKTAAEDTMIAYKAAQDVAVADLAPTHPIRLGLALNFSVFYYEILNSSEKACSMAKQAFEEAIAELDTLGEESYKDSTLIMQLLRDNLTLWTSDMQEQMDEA
14-3-3κ, sequence (P48348 whole entry, looked up, canonical isoform): as the sequence (P48348 whole entry, canonical isoform) above

pKd [1]	stoichiometry N [1]	Substance	other results
–	–	BKI1 265-272 (from UniProt Q9FMZ0) pS270 peptide	KD (14-3-3κ; reference: unphosphorylated BKI1 265-272 peptide, sites S270): gained; reference No binding was detected
–	–	BRI1 869-874 (from UniProt O22476) pT872 peptide	binding against the reference (14-3-3κ; reference: unphosphorylated BRI1 869-874 peptide, sites T872): gained
4.80	1	pBKI1^265−272 peptide	–
–	1	pBRI1^869−874 peptide	–
6.30	1	pBZR1^169−175 peptide	pKd [2]: 6.30; complex lifetime [2]: 1 s
